Key:
[1] = system: seven fluorescein-labeled pTyr-containing peptides; experiment: in-solution fluorescence polarization binding assay, set of seven peptides; conditions: average over seven peptides, relative to the wild type of the same SH2 domain
Method: Each peptide was synthesized on the TentaGel amide resin (INTAVIS Inc.) and N-terminally labeled with fluorescein using NHS-fluorescein (Thermo Fisher Scientific). Each of the 13 variant and the wild-type SH2 domain was produced by overexpression in the Escherichia coli BL21(DE3) strain cultured in LB media (EMD Chemicals). Expression was induced by 0.3 mM isopropyl β-D-1-thiogalactopyranoside (IPTG), and the cell culture was incubated for 5 hours at 37° C. The cells were harvested by centrifuge, and broken on ice, in buffer solution containing 20 mM sodium phosphate, 0.1 M NaCl, 20 mM imidazole, 1 mg/ml lysozyme and 1% Triton-X 100, adjusted at pH 7.8. Affinity purification was performed with the Ni-NTA agarose resin (Qiagen Inc.), according to the manufacturer's instruction. […] Measurements of fluorescence polarization were conducted by titrating the SH2 domain concentration, while keeping the peptide concentration constant. Kd values were calculated with the GraphPad Prism software, by assuming the one-site binding model (GraphPad Software).
The determined Kd values of interaction between the 14 SH2 domains (including the wild-type) and seven peptides were listed in FIG. 7(a). […]
Fluorescence polarization assay was conducted to determine Kd values of the interaction between the wild-type or variant Src SH2 domain and seven fluorescein-labeled pTyr-containing peptides (FIG. 9a).

EGFR = molecular target: T1, EGFR (Homo sapiens, UniProt P00533); experiment: immunoprecipitation of GFP-fused SH2 domains with EGFR in HEK 293 cells; assay type: cell-based; conditions: GFP-fusion expressed in HEK 293 cells, EGF 100 ng/ml, anti-GFP and anti-EGFR antibodies
T1 construct: endogenous in cells; host or cells: HEK 293
Text: The three variant SH2 domains mentioned in the previous sentence were dubbed as 8V/10A/15L-substituted SH2 domains, or the TrM SH2 domains, in the following descriptions, as well as in FIG. 11 and FIG. 12. The wild-type (Wt) and TrM SH2 domains, subcloned into the pEGFPC2 vector, were expressed in the HEK 293 cells as a GFP-fusion protein. Methods used in this and the following sections are described below.
Anti-GFP rabbit polyclonal antibody was purchased from Sigma-Aldrich. Anti-EGFR rabbit polyclonal antibody was purchased from Millipore. Anti-p44/42 MAPK (Erk1/2) mouse monoclonal antibody, and anti-phospho-p44/42 MAPK (Thr202/Tyr204) mouse monoclonal antibody were purchased from Cell Signaling. HEK 293 cells were grown in Dulbecco's modification of Eagle's medium (DMEM, Sigma-Aldrich) supplemented with 10% fetal bovine serum (FBS, SAFC Biosciences), 50 units/ml penicillin and 50 μg/ml streptomycin (GIBCO Invitrogen Corp.) in a humidified atmosphere of 5% CO2 in air at 37° C. EGF (Invitrogen) at a final concentration of 100 ng/ml was added to the medium at the indicated time point. Transient transfections were carried out with jet-PEI (PolyPlus-Transfection; Illkirch, France) according to manufacturer's instruction. […]

Substance: T8V: variant Fyn SH2 domain, Thr at position 8 to Val; SEQ ID NO:5 (RKDAERQLLSFGNPRGTFLIRESETVKGAYSLSIRDWDDMKGDHVKHYK; Synthetic construct T8V)
- average affinity increase, Kd[wild-type] divided by Kd[variant] [1]: 1.4 fold

Substance: wild-type Grb2 SH2 domain: polypeptide between Met55 and Pro158 of the human Grb2 [reference compound]
- binding to EGFR (immunoprecipitation) (EGFR): Weak binding

Substance: wild-type Src SH2 domain: human Src SH2 domain between Asp144 and Lys252; SEQ ID NO:18 [reference compound]
- binding to EGFR (immunoprecipitation) (EGFR): did not show detectable binding

From patent publication US10274499B2, “SH2 domain variants” (THE UNIVERSITY OF WESTERN ONTARIO, priority 2012, dated 2019)
